Patent publication US20140121131A1 (AFFINITY BIOSCIENCES, published 2014)

Assays:
biotinylated His6-GFP [1] = target: T1, biotinylated His6-GFP (UniProt P42212 1-238 = GFP); test: phage capture on streptavidin Dynal beads labelled with biotinylated His6-GFP; fusion protein not induced; reference is Hy5 phage with wild-type gpL
T1 construct: Held on streptavidin magnetic particles or Dynal beads; also called biotinylated eGFP; Biotin-labeled eGFP; not shown: His6 tag

biotinylated His6-GFP [2] = target: T1, biotinylated His6-GFP; test: phage capture on streptavidin Dynal beads labelled with biotinylated His6-GFP; fusion protein induced with arabinose; reference is Hy5 phage with wild-type gpL

B1: αGFP::I27::gpL fusion protein (VHH)
chain: MGDGMQVQLVESGGALVQPGGSLRLSCAASGFPVNRYSMRWYRQAPGKEREWVAGMSSAGDRSSYEDSVKGRFTISRDDARNTVYLQMNSLKPEDTAVYYSNVNVGFEYWGQGTQVTVSSNSSSQTSLIEVEKPLYGVEVFVGETAHFEIELSEPDVHGQWKLKGQPLTASPDCEIIEDGKKHILILHNCQLGMTGEVSFQAANAKSAANLKVKELNSSSDYKDDDDKGNGTLIIPRKEAPVSGEGTVVIPQPAGDEPVIKNTFFFPDIDPKRVRERMRLEQTVAPARLREAIKSGMAETNAELYEYREQKIAAGFTRLADVPADDIDGESIKVFYYERAVCAMATASLYERYRGVDASAKGDKKADSIDSTIDELWRDMRWAVARIQGKPRCIVSQI
notes: also called Hy5 + αGFP:I27:gpL; gpL capsid fusion protein
In the case of B1, the “Enrichment (fold over Hy5)” value (biotinylated His6-GFP [1]) is reported as 6.5 fold over Hy5 and the “Enrichment (fold over Hy5)” value (biotinylated His6-GFP [2]) is reported as 82 fold over Hy5.
